Data published in PMC4278905, “Differential Binding of Lef1 and Msx1/2 Transcription Factors to Dkk1 CNEs Correlates with Reporter Gene Expression In Vivo”.

Target: Lef1 (UniProt P27782 1-397)
Test: EMSA; 100 ng Lef1, 5 mM Mg2+, 1 ug poly(dI-dC); 20 mM Hepes pH 7.9, 60 mM KCl, 1 mM EDTA, 1 mM DTT, 5 mM MgCl2, 10% glycerol, 1 ug poly(dI-dC), 30 min on ice; 5% native PAGE, 0.5x TBE, 4 C
Details: protein: recombinant; tags: GST removed by thrombin (pGEX4T-1); label: 32P (T4 PNK, 5' end); blunt

Chain of Lef1 (P27782 whole entry): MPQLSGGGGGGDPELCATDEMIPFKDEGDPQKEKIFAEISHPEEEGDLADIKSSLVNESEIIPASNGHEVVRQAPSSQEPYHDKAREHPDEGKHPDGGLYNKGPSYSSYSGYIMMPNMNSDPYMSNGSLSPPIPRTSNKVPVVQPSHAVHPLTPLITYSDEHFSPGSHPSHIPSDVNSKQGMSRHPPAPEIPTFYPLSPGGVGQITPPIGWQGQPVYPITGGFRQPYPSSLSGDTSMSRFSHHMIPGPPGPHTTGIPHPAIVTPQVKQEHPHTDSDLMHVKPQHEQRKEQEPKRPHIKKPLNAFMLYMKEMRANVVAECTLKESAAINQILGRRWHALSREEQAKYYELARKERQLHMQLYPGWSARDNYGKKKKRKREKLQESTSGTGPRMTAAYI

Binder	binding result
CNE195Mut(TCF/Lef) (dsDNA) DNA 1: ATGAATGAAACTTGAATTCGCAAGGGTCA DNA 2: TGACCCTTGCGAATTCAAGTTTCATTCAT	no binding
CNE195 Tcf/Lef (dsDNA) DNA 1: ATGAATGAAACTTCAAAGGGCAAGGGTCA DNA 2: TGACCCTTGCCCTTTGAAGTTTCATTCAT	binds
